Where “and” joins values, the source holds several entries; their conditions need not be identical. Equal values may be shown once.
Key:
[1] = target: HIV-1 integrase (IN), monomer E (HIV-1) (UniProt P04585); assay: SAXS titration
[2] = target: HIV-1 integrase (HIV-1); assay: SAXS

Substance	Kd [1]	stoichiometry N [2]
AAAAAAAAAAAAAAAAAAAAA (double strand) [ds A21-T21]	40 nM	
HIV-1 integrase (enzyme)		2 and 4
